test: soluble on expression in E. coli; label from the status in PepcDB or PDB records

Row | Sequence | soluble on expression in E. coli
1 | MTSGAPPTISTEKSRSKQLRKSSKRTASTVEGTEAKQMRGDTENRSDGEMDDVSTSSEIRHGNGFIENFRSQTGNSSRTTATNERIKKKLVIKNFKANANQNDVAMGDTNIDSTDGSVGRDWAVLSDNVFAILEDRKTVTTLEGLFSKVRSVCDKNQSKVLYDRLVAIVVQFAKSLKESLNAVEQVPLAEDNCEQYLEKFGQIWQAYPVKINLIRNIFLHLDRIALGATDTEILPLWECFMQIFQKTFFPNIFKEFKATKLFNALYMAMQKIMQRYPVDSPLRSLVDMLQTVHVSEEFAKFLISQLREHYNNERIDKVPKMNCNDYMEYCEDQINRYSQLVKVNFDEPSALKDVQATVTNCLIQQAIPEILTHDFDDLIDSDNISDIGRMFNLCRQCVGGEDEVRTQFSKYLKKRGEKLIATCPDEDLVSELLAFKKKVDFIMTGSFKSANDPVKMRQCLSDAFESFVNKQVDRSAELISKHFHTLLHSSNKNVSDDTTLDQMVDEAIVLFRYLRGKDVFEAYYKRGLAKRLFLERSASVDAEKMVLCKLKTECGSAFTYKLEGMFKDMDASENYGRLFNQYLEHMNKEKANFTARVITPEYWPTYDTYEINIPKEMRDTLTDYQDFYRVQHGNRNVKWHHGLASAVISASFRPGCKKELIATMYQTVILLLFNKCETWTVAEIVEHTKILEIEVVKNVLALLGGRDKPKVLQRVEGGGSEKKEGTVENLKNEKFVVNSKFTEKRCRVRIAQVNIKTAVEETKEVKEEVNSDRQYKIDAAVVRIMKARKQLNHQTLMTELLQQLRFPVSTADIKKRLESLIEREYISRDPEEASSYNYVA | not soluble
2 | GMTTENTTALLLIDFQNDYFSTYNGAKNPLVGTEAAAEQGAKLLAKFRQQGLPVVHVRHEFPTDEAPFFLPGSDGAKIHPSVAAQEGEAVVLKHQINSFRDTDLKKVLDDAGIKKLVIVGAMTHMCIDAVTRAAEDLGYECAVAHDACATLDLEFNGITVPAAQVHAAFMSALSFAYANVASADELIAGL | soluble
3 | MAHHHHHHMNKHICIYGGSFDPITHAHEMVLAEVSSLDWVDEIWVVLCRCRNDKHLTEFQHRHNMFSLIMNNNSPKMLKNKIFLKDIECKETTTPTYDLLKMQKEKYPNYTFYFTIGSDLLNDIFFWDNGEKLVAENNFIIVERGNFKIDENVLKKFPSYYLIKIENMSFINYISSSDARKMLSQKNNSEDLQKYIHPVIINYIKEHDLYDNNSA | soluble
4 | MKDTVMMKLNTKESMAQIDGQTIYFKQIGEGKPPLLMLHGFGGSSDGFSDIYPELARDHTIIAVDILGFGRSSKPVDFQYSFPAQVNLYYKLMKKLGYNQFAVLGHSMGGEMSLNLAYLYPDAVTHLILADATGIESFQQKESYEVPPLSTDLQTVTEITKYNKNEVKNSRDDKEHYDQLTKMRERRIAMEADKIKVPTLIIWGRHDKSVSWKNGELYHGLFANSTFHIIEKGYHAPFRQEPIEFMEYVQAFFAKHPQ | not soluble
5 | MGSDKIHHHHHHMRGIVCVHKFCSRFSRTAYFTYGWMMNIELISLLKGNMGLTLTSELAADICVAAYRMETLAQSRDIAQIKPRYNGRIVFAVERIEDITEEIKHLHRTHWNETEGHRHRLPFQPDYETFIRYEQAGRYLLFTVRSEGKLLGNCAMYLDKSAHTQTLIATEDTLYLLPEARRGTTAKRFVRYVENAMKLLGVREINITVKTVNKAARFFRLLGYRHVENGLTKILEIENV | not soluble
6 | MRTIVFDVDDTLYDQQQPFRNAMTKIFPNVATEDMHELYLRFRHHSDETFPKVLANEWSLDFMRFFRMNETLKDLNYPGISQEEGKIFQQVYEEELDNITMHPEVTKLLDTLQEKEIPMGIITNGPTDHQFKKVKQLNIEKWVPSQNIIISQSTGFQKPEKEIFDLACNQFCMEPEHTLYVGDSYDNDIVGARNGGWHSLWFNHRSRELPSCQPASHLAEVTCFTELCPTVEKLFNL | not soluble
7 | MGSDKIHHHHHHMATQTDSEAALRIASGRKAFVEPLRLGERLKEIRLSNRWTLEDVSQRTGLARSTLSKIENDQISPTFSAVQKLIGGLGIDLPQLLTPPKPQSRTLGRRDLTRVGEGKQHPTPTYEHELLSWQLAQKRMIPFKTIVRARDFNEFSEWVRHDGEEFLMVLDGDIWLYTEFYEPLHLAQGDSIYFDSDMGHALISVSETDAVVLSVCTRGENA | not soluble
8 | MPVKKVEKNILVLHGADKMFELVDKVEDYPHFLPWYSKTEVIGRSGNELKARLFMDYMHVRQSFATHNRNIPGREIRMELLEGPFKTLRGTWKFIDLGDDMCKIEFNLEYDFSNAVLSALISPVFNHLSTTLVEAFVKEADRRYA | not soluble
9 | MNLTQMLPDLDDVPESLLDEAIFDSFLSWTRSKDLALYPAQEEAALGILAGDNVILATPTGSGKSMVAIAAHFIAMARGQRSFYTAPIKALVNEKFFALCDIFGPESVGMMTGDATVNGSAPIICATAEIVANIALRDGTDADIDQVVMDEFHYYSEPGRGWAWQVPLLELPRTQFLLMSATLGDTTFIQKDLSDRTGRTTNLVAGATRPVPLQFSYVYTPVHETIQDLLDTNNAPIYVVHFTQREAIERAQSLTSMTVIDSETKEKIATEIGNFKFTTTFGHTLSKLLRKGIGVHHAGMLPKYRRLVEKLSQTGLLKIICGTDTLGVGINVPIRTVLFTGLAKFDGSKQRILASREFHQIAGRAGRAGYDTVGNVVIEAPEHEIENWRLRQRAGSDLKKLKKLRKKSARDGEVTWGEKTYERLSEAEPENLQSQFRISNSMLLNVIARSGDAYVHLKHLLRTNHDTRDKQNKDILTALELFRGLVAAGIVEKLDSPDSTGRKYVITEDLRRDFALNQPLAPFALAALEILDKESTSYALDVISVFESILEDPRVVLIAQQKQARGEEIAALKAEGVEYTERMNIVEEISWPKPLEEILEPAFDTYCSGHPWAKEFTLSPKSIVRDMIEHGMTFSDFIATYGLSRSEGVVLHYLTDAWKTLSHSVPTEYVSDELEEIIEWLGELVRQVDSSLIDEWANMADPDAPISQDTVDQQRAFGVEDPNAITANSRAFAVMVRNLMFRMVQLFAAEEEEKLEALTDYLDEQPDFSEALDVYFDEYSDLDVGPDARGREYFLLKKDGRIWSVRQIIKDPNDDRAFSFAATVDLNASDAADEVRFAKFSIDS | not soluble
10 | MKFEGIYTPAITPLSADGSIDTQAFAEVLEFLVESKVHGIVIGGSTGEYYAHTAEERLALAAHASEVIAGRLPLVVGTGAIRTEDSLAYAEAARAIGADAILVGSPPYALPTSREIAEHVLAVDRAAGLPIMLYNYPARMGVEMDEAFFAAVAGCRNIVAIKESSGSTAQLHRLACRHPRIALSCGWDDQALEFFAWGARSWVCAGSNFIPGEHLALYQACVVENDFAKGRRIMAAMMPLMDFLESGHFVQSIKHGCELAGLRAGGVRAPLKALDEAGKAALAEIVARLKGEVAR | not soluble
11 | MHHHHHHSSGVDLGTENLYFQSMWSVRPSDMAKKTFNPIRAIVDNMKVKPNPNKTMISLSIGDPTVFGNLPTDPEVTQAMKDALDSGKYNGYAPSIGFLSSREEIASYYHCPEAPLEAKDVILTSGCSQAIDLCLAVLANPGQNILVPRPGFSLYKTLAESMGIEVKLYNLLPEKSWEIDLKQLEYLIDEKTACLIVNNPSNPCGSVFSKRHLQKILAVAARQCVPILADEIYGDMVFSDCKYEPLATLSTDVPILSCGGLAKRWLVPGWRLGWILIHDRRDIFGNEIRDGLVKLSQRILGPCTIVQGALKSILCRTPGEFYHNTLSFLKSNADLCYGALAAIPGLRPVRPSGAMYLMVGIEMEHFPEFENDVEFTERLVAEQSVHCLPATCFEYPNFIRVVITVPEVMMLEACSRIQEFCEQHYHC | soluble
12 | MQNAILLVSCPDRKGLVKEISSFIADNGGNIVSFDQHIDEQTKTFLARVEWSLEDFKIPREKIENEFKKVAQKFSMNFQISFSDYVKKVAIFVSKQEHCFYDLMHRFYSGELKGEVKLVISNHEKARKTAEFFGVPFYHIPKTKENKLEAEKRELELLKEYGVELVVLARYMQILSPKFVKEYENKIINIHHSFLPAFPGAKPYERAFGKGVKIIGATAHYVTEELDEGPIIEQDVVRVSHKDSLEDFIRKGKDIEKVVLARAVKWHLEDKILVYNGKTVVFE | soluble
13 | MAHHHHHHMHQHGKTSGTDGSGATVSQSSSGFMETPWRIFEYGVASEQGSRKTMEDQHAMVAESFPFFAVYDGHGGTQCAEFLRDNLHTFIFGQPEIETDPERATRAGIAEAENAFLTKCADEKIESGSTCAVALVVDDTLIAGNVGDSEIVLCRAGAPIVLSTKHSIQDNVSEGERVKACGGRIISNRVGHPKFNPQLLSLAITRAIGDAGFKLREFTDGKPSGVIADAETRSTRLTDDDKFLIIGCDGLWDVMSYEAAVQLCSRLASEGETPKAIAGSLCQEALRQGSTDNVTCIYINIRAKSSAPGCGQLGSGDPLHNM | soluble

Reference: the DeepSol protein solubility set
